Here are results for 41 molecules from patent US20090280138A1 (OXFORD BIOMEDICA UK, published 2009).

Broadly, the EC50 is the concentration needed to bring the measured effect to its halfway point.

For the first test, the target named is T1, MHC class I molecule B*0702 (biotin (bound via biotin to streptavidin-coated plates)).
T1 construct: Methods name B*0702 as the allele used; also called B7; HLA-B7
In words: iTopia affinity assay (ED50), peptide titration on plate-bound MHC. On the procedure: (§1) The 9 mers were tested for Peptide Binding, Off Rate and Affinity using iTopia Epitope Discovery System in accordance with the manufacturer's instructions. Briefly, 96 well microtitre plates coated with MHC molecules representing different MHC alleles are used to identify candidate peptides. […] Determinations are performed in duplicate using an ELISA plate reader and included allele specific positive controls.
(§2) Dose-response curves of peptide binding to MHC were prepared by peptide titration to determine the ED50 measurement for each peptide. Values for the concentrations tested (in duplicate) were obtained as a percentage of the highest (9000×) concentration of the positive control peptide. A dose-response curve was generated using GraphPad Prism® curve fitting software, which automatically calculated the ED50 (in Molarity) for each peptide.
In turn, LPSLRQLDL [5T4 9 mer peptide 71 (LPSLRQLDL)] returned an EC50 of 3 µM.
In the case of LPSLRHLDL [5T4 9 mer peptide 117 (LPSLRHLDL)], the midpoint of the response, the EC50, lay at 5 µM.
The same measure, in the same setting: under APFLASAVS [5T4 9 mer peptide 23 (APFLASAVS)] stands 20 µM.
On the same count and under the same terms, under LPAYVRNLF [5T4 9 mer peptide 45 (LPAYVRNLF)] stands 2 µM; under PPLAELAAL [5T4 9 mer peptide 58 (PPLAELAAL)], 30 µM.
On the same count and under the same terms, next, AALLAGRAL [5T4 9 mer peptide 101 (AALLAGRAL)]: 7 µM; RLDEVRAGA [5T4 9 mer peptide 65 (RLDEVRAGA)]: 20 µM; LTYVSFRNL [5T4 9 mer peptide 125 (LTYVSFRNL)]: 3 µM.
SPTSSASSF [5T4 9 mer peptide 17 (SPTSSASSF)] had an EC50 of 2 µM.
RLRLARLAL [5T4 9 mer peptide 8 (RLRLARLAL)] came in with an EC50 of 0.02 µM.
The same measure, in the same setting: under GAFARRPPL [5T4 9 mer peptide 55 (GAFARRPPL)] stands 10 µM.
Still for that read-out and setting: next, LAELAALNL [5T4 9 mer peptide 59 (LAELAALNL)]: 20 µM.
Still for that read-out and setting: under LPRDVLAQL [5T4 9 mer peptide 113 (LPRDVLAQL)] stands 10 µM.

The next test concerns the target T2, MHC class I molecule A*0301 (biotin (bound via biotin to streptavidin-coated plates)).
T2 construct: also called A3; HLA-A3
Described as above. Here is the method: as §1, §2
VVAALLAGR [5T4 9 mer peptide 100 (VVAALLAGR)] displayed an EC50 of 10 µM.
Turning to RLDEVRAGA [5T4 9 mer peptide 65 (RLDEVRAGA)], the response was half-maximal at 40 µM (EC50).
The same measure, in the same setting: under LTYVSFRNL [5T4 9 mer peptide 125 (LTYVSFRNL)] stands 3 µM.
On the same count and under the same terms, under RLRLARLAL [5T4 9 mer peptide 8 (RLRLARLAL)] stands 0.4 µM.
The molecule LASNHFLYL [5T4 9 mer peptide 109 (LASNHFLYL)] returned an EC50 of 30 µM.
On the same count and under the same terms, under NNPWVCDCH [5T4 9 mer peptide 147 (NNPWVCDCH)] stands 3 µM.

The target of another test is T3, MHC class I molecule A*0201 (biotin (bound via biotin to streptavidin-coated plates)).
T3 construct: also called A2; HLA-A2
The test is described as above. Here is the method:
as §1, §2
LPSLRQLDL [5T4 9 mer peptide 71 (LPSLRQLDL)] returned an EC50 of 5 µM.
Still for that read-out and setting: under LPSLRHLDL [5T4 9 mer peptide 117 (LPSLRHLDL)] stands 20 µM; under APFLASAVS [5T4 9 mer peptide 23 (APFLASAVS)], 20 µM.
In turn, PPLAELAAL [5T4 9 mer peptide 58 (PPLAELAAL)] registered an EC50 of 40 µM.
On to AALLAGRAL [5T4 9 mer peptide 101 (AALLAGRAL)], for which the concentration for a half-maximal effect (EC50) is 4 µM.
Molecule RLDEVRAGA [5T4 9 mer peptide 65 (RLDEVRAGA)] returned an EC50 of 20 µM.
Turning to LTYVSFRNL [5T4 9 mer peptide 125 (LTYVSFRNL)], a half-maximal effect (EC50) was put at 0.4 µM.
The same measure, in the same setting: under VPTDLPAYV [5T4 9 mer peptide 43 (VPTDLPAYV)] stands 20 µM; under RLRLARLAL [5T4 9 mer peptide 8 (RLRLARLAL)], 0.06 µM; under LTCAYPEKM [5T4 9 mer peptide 161 (LTCAYPEKM)], 10 µM.
Same read-out and setting: under LASNHFLYL [5T4 9 mer peptide 109 (LASNHFLYL)] stands 0.6 µM; under GAFARRPPL [5T4 9 mer peptide 55 (GAFARRPPL)], 0.8 µM; under LAELAALNL [5T4 9 mer peptide 59 (LAELAALNL)], 2 µM.

A further test addresses T4, MHC class I molecule A*0101 (biotin (bound via biotin to streptavidin-coated plates)).
T4 construct: also called A1; HLA-A1
Described as above. Here is the method: as §1, §2
HMEGYHYRY [5T4 9 mer peptide 198 (HMEGYHYRY)] yielded an EC50 of 3 µM.
Turning to QTSYVFLGI [5T4 9 mer peptide 177 (QTSYVFLGI)], the EC50 worked out at 20 µM.
The same measure, in the same setting: under LTYVSFRNL [5T4 9 mer peptide 125 (LTYVSFRNL)] stands 3 µM.
On the same count and under the same terms, next, VPTDLPAYV [5T4 9 mer peptide 43 (VPTDLPAYV)]: 20 µM; LTCAYPEKM [5T4 9 mer peptide 161 (LTCAYPEKM)]: 20 µM; LASNHFLYL [5T4 9 mer peptide 109 (LASNHFLYL)]: 20 µM.
On the same count and under the same terms, under FSSSAPFLA [5T4 9 mer peptide 21 (FSSSAPFLA)] stands 20 µM.

The target in another test is T5, MHC class I molecule HLA-A*0201 (iTopia plate-bound monomer) (biotin (bound to streptavidin-coated plate)).
T5 construct: also called A2
Put plainly: iTopia off-rate assay, 37 C; fit R^2 0.93. On the procedure:
as §1
A one-phase exponential decay curve, with a plateau given equal to 0, was generated using GraphPad Prism® software, which calculated the t1/2 and goodness-of-fit, as measured by r², for each peptide.
Molecule LALVLLGWV (also called Peptide No 11) [5T4 9-mer peptide 11 LALVLLGWV] yielded a t½ half life of 1.6 h.
Still for that read-out and setting: next, PLADLSPFA (also called Peptide No 77) [5T4 9-mer peptide 77 PLADLSPFA]: 4.8 h.
The same measure, in the same setting: next, ILPPSLQTS (also called Peptide No 174) [5T4 9-mer peptide 174 ILPPSLQTS]: 5 h; GLRRLELAS [5T4 9-mer peptide 106 GLRRLELAS]: 0.4 h.
On the same count and under the same terms, next, GMVVAALLA (also called Peptide No 99) [5T4 9-mer peptide 99 GMVVAALLA]: 1.8 h.
In turn, SLRHLDLSN [5T4 9-mer peptide 118 SLRHLDLSN] came in with a t½ half life of 0.4 h.
For RGPAAGDGR (also called Peptide No 4) [5T4 9-mer peptide 4 RGPAAGDGR], the t½ half life stood at 1.2 h.
For VFLDNNPWV [5T4 9-mer peptide 145 VFLDNNPWV], the t½ half life was 1.2 h.

The target of the next test is T6, MHC class I allele B*0702 monomer (human, biotinylated, bound to streptavidin-coated plate).
T6 construct: also called B7; HLA-B7
In words: iTopia, multiparametric iScore. On the procedure: as §1
(§3) Finally, multiparametric analysis is performed on the results from these assays and an iScore is generated. The iScore represents a measure of the overall quality of peptide-MHC binding, enabling candidate peptides to be ranked in order of binding quality and allowing rational prioritisation of peptides for functional cellular follow-up studies.
LPRDVLAQL [5T4 9-mer peptide 113] registered an iScore of 0.305.
With YVSFRNLTH [5T4 9-mer peptide 126], the iScore worked out at 0.21.
Same read-out and setting: under APFLASAVS [5T4 9-mer peptide 23] stands 0.176; under AALLAGRAL (also called AALLAGRAL) [5T4 9-mer peptide 101], 0.238; under PPLAELAAL (also called PPLAELAAL) [5T4 9-mer peptide 58], 0.145.
Same read-out and setting: next, YPEKMRNRV [5T4 9-mer peptide 163]: 0.242; VLYLNRKGI [5T4 9-mer peptide 187]: 0.164.

A further test concerns the target T7, MHC class I allele A*0101 monomer (human, biotinylated, bound to streptavidin-coated plate).
T7 construct: placeholder peptide and b2M removed, then reconstituted with test peptide and fresh b2M; also called A1; HLA-A1
Put plainly: iTopia, multiparametric iScore. On the procedure: as §1, §3
Molecule LTCAYPEKM [5T4 9-mer peptide 161] registered an iScore of 0.139.
The same measure, in the same setting: under VPTDLPAYV [5T4 9-mer peptide 43] stands 0.098.

For the next test, the target named is T8, MHC class I allele A*0201 monomer (human, biotinylated, bound to streptavidin-coated plate).
T8 construct: also called A2; HLA-A2
Put plainly: iTopia, multiparametric iScore. On the procedure:
as §1, §3
In turn, GLPHIRVFL [5T4 9-mer peptide 142] had an iScore of 1.39.
Molecule LLVLYLNRK [5T4 9-mer peptide 186] yielded an iScore of 0.386.

Another test concerns the target T9, MHC class I allele A*0301 monomer (human, biotinylated, bound to streptavidin-coated plate).
T9 construct: also called A3; HLA-A3
Put plainly: iTopia, multiparametric iScore. On the procedure: as §1, §3
Take GLPHIRVFL [5T4 9-mer peptide 142]: the iScore turned out to be 0.319.
In the case of LLVLYLNRK [5T4 9-mer peptide 186], the iScore turned out to be 0.375.
As for VVAALLAGR [5T4 9-mer peptide 100], the iScore came to 0.125.

For the next test, the target named is T6, MHC class I allele B*0702 monomer. In words: iTopia, multiparametric iScore. This is another data set of the same source. The method in brief:
(§4)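 The iScore combines the binding, off-rate and affinity results into one overall binding-quality value for each 9-mer. These measurements were made by ELISA in duplicate on MHC-coated plates, with allele-specific positive controls.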
As for YVSFRNLTH [5T4 9-mer peptide 126], the iScore stood at 0.21.
GLPHIRVFL [5T4 9-mer peptide 142] returned an iScore of 0.075.
Same read-out and setting: under YPEKMRNRV [5T4 9-mer peptide 163] stands 0.242; under LTCAYPEKM [5T4 9-mer peptide 161], 0.
VLYLNRKGI [5T4 9-mer peptide 187] registered an iScore of 0.164.

Another test concerns the target T7, MHC class I allele A*0101 monomer. In words: iTopia, multiparametric iScore. The source holds these as a separate data set. The method, boiled down:
as §4
With YVSFRNLTH [5T4 9-mer peptide 126], the iScore worked out at 0.
On to GLPHIRVFL [5T4 9-mer peptide 142], for which the iScore amounted to 0.
The same measure, in the same setting: next, LLVLYLNRK [5T4 9-mer peptide 186]: 0; YPEKMRNRV [5T4 9-mer peptide 163]: 0; LTCAYPEKM [5T4 9-mer peptide 161]: 0.139.
On the same count and under the same terms, next, VLYLNRKGI [5T4 9-mer peptide 187]: 0.

A further test concerns the target T8, MHC class I allele A*0201 monomer. Put plainly: iTopia, multiparametric iScore. This is another data set of the same source. The method in brief: as §4
Consider YVSFRNLTH [5T4 9-mer peptide 126], for which the iScore is 0.
As to GLPHIRVFL [5T4 9-mer peptide 142], the iScore came to 1.89.
The molecule LLVLYLNRK [5T4 9-mer peptide 186] registered an iScore of 0.386.
On the same count and under the same terms, next, YPEKMRNRV [5T4 9-mer peptide 163]: 0; LTCAYPEKM [5T4 9-mer peptide 161]: 0.158.
Regarding VLYLNRKGI [5T4 9-mer peptide 187], the iScore came out at 0.095.

For another test, the target named is T9, MHC class I allele A*0301 monomer. In words: iTopia, multiparametric iScore. This is another data set of the same source. The method in brief:
as §4
Consider YVSFRNLTH [5T4 9-mer peptide 126], for which the iScore was 0.086.
As for GLPHIRVFL [5T4 9-mer peptide 142], the iScore is 0.319.
In turn, LLVLYLNRK [5T4 9-mer peptide 186] came in with an iScore of 0.372.
On the same count and under the same terms, under YPEKMRNRV [5T4 9-mer peptide 163] stands 0; under LTCAYPEKM [5T4 9-mer peptide 161], 0.
VLYLNRKGI [5T4 9-mer peptide 187] registered an iScore of 0.017.
